Source: paper PMC13028475

Biological target: FPM13 (Francisella Periplasmic Metalloprotein, 13 kDa), native protein of Francisella novicida (Francisella novicida)
Test: cryo-EM structure

## FPM13 (Francisella Periplasmic Metalloprotein, 13 kDa), native protein of Francisella novicida (natural protein)
  stoichiometry N: 18
